Test results taken from the supplement of paper PMC9116672.
± gives the standard deviation of the averaged measurements or the uncertainty stated by the source.

How the values were obtained:
[1] = duplex melting temperature (HRM, EvaGreen); higher = more stable duplex
Description: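 Listed DNA strand annealed 1:1 with its complementary strand (95 °C 5 min, 0.1 °C/s to 20 °C). Melted in 1x NNE buffer (500 mM NaCl, 10 mM Na2HPO4, 1 mM EDTA, pH 7.0) with 1x EvaGreen on a LightCycler96 (37 to 97 °C, 0.1 °C/s). Tm is the peak of -dF/dT at the stated total duplex concentration; 4 replicates are averaged. PS oligos are non-stereospecific (Rp/Sp mixtures).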

[2] = duplex formation free energy ΔG50 (Van't Hoff fit of HRM Tm); higher = less stable duplex; settings: temperature for dG: 50 °C, NaCl: 500 mM (unadjusted)
Description: (§1)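 Duplex of the listed DNA strand with its complement, in 1x NNE buffer (500 mM NaCl, pH 7.0) with 1x EvaGreen. ΔH and ΔS come from a Van't Hoff linear fit of 1/Tm against ln(CT/4) over 1-20 uM, using HRM Tm values.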

[3] = duplex formation enthalpy ΔH (Van't Hoff fit of HRM Tm); higher = less exothermic duplex formation; settings: temperature for dG: 50 °C, NaCl: 500 mM (unadjusted)
Description: as §1

[4] = duplex formation entropy ΔS (Van't Hoff fit of HRM Tm); higher = smaller entropy loss on duplex formation; settings: temperature for dG: 50 °C, NaCl: 500 mM (unadjusted)
Description: as §1

[5] = duplex concentration 1 µM, backbone: PO-PO (both strands phosphodiester DNA)
[6] = duplex concentration 1 µM, backbone: PS-PO (listed strand fully phosphorothioate, complement phosphodiester)
[7] = duplex concentration 1 µM, backbone: PS-PS (both strands fully phosphorothioate)
[8] = duplex concentration 2.5 µM, backbone: PO-PO (both strands phosphodiester DNA)
[9] = duplex concentration 2.5 µM, backbone: PS-PO (listed strand fully phosphorothioate, complement phosphodiester)
[10] = duplex concentration 2.5 µM, backbone: PS-PS (both strands fully phosphorothioate)
[11] = duplex concentration 5 µM, backbone: PO-PO (both strands phosphodiester DNA)
[12] = duplex concentration 5 µM, backbone: PS-PO (listed strand fully phosphorothioate, complement phosphodiester)
[13] = duplex concentration 5 µM, backbone: PS-PS (both strands fully phosphorothioate)
[14] = duplex concentration 7.5 µM, backbone: PO-PO (both strands phosphodiester DNA)
[15] = duplex concentration 7.5 µM, backbone: PS-PO (listed strand fully phosphorothioate, complement phosphodiester)
[16] = duplex concentration 7.5 µM, backbone: PS-PS (both strands fully phosphorothioate)
[17] = duplex concentration 10 µM, backbone: PO-PO (both strands phosphodiester DNA)
[18] = duplex concentration 10 µM, backbone: PS-PO (listed strand fully phosphorothioate, complement phosphodiester)
[19] = duplex concentration 10 µM, backbone: PS-PS (both strands fully phosphorothioate)
[20] = duplex concentration 15 µM, backbone: PO-PO (both strands phosphodiester DNA)
[21] = duplex concentration 15 µM, backbone: PS-PO (listed strand fully phosphorothioate, complement phosphodiester)
[22] = duplex concentration 15 µM, backbone: PS-PS (both strands fully phosphorothioate)
[23] = duplex concentration 20 µM, backbone: PO-PO (both strands phosphodiester DNA)
[24] = duplex concentration 20 µM, backbone: PS-PO (listed strand fully phosphorothioate, complement phosphodiester)
[25] = duplex concentration 20 µM, backbone: PS-PS (both strands fully phosphorothioate)
[26] = backbone: PS-PO (listed strand fully phosphorothioate, complement phosphodiester)
[27] = backbone: PS-PS (both strands fully phosphorothioate)
[28] = backbone: PO-PO (both strands phosphodiester DNA)

Sequence | duplex melting temperature [1, 5] [°C] | duplex melting temperature [1, 6] [°C] | duplex melting temperature [1, 7] [°C] | duplex melting temperature [1, 8] [°C] | duplex melting temperature [1, 9] [°C] | duplex melting temperature [1, 10] [°C] | duplex melting temperature [1, 11] [°C] | duplex melting temperature [1, 12] [°C] | duplex melting temperature [1, 13] [°C] | duplex melting temperature [1, 14] [°C] | duplex melting temperature [1, 15] [°C] | duplex melting temperature [1, 16] [°C] | duplex melting temperature [1, 17] [°C] | duplex melting temperature [1, 18] [°C] | duplex melting temperature [1, 19] [°C] | duplex melting temperature [1, 20] [°C] | duplex melting temperature [1, 21] [°C] | duplex melting temperature [1, 22] [°C] | duplex melting temperature [1, 23] [°C] | duplex melting temperature [1, 24] [°C] | duplex melting temperature [1, 25] [°C] | duplex formation free energy ΔG50 [2, 26] [kcal/mol] | duplex formation free energy ΔG50 [2, 27] [kcal/mol] | duplex formation enthalpy ΔH [3, 26] [kcal/mol] | duplex formation enthalpy ΔH [3, 27] [kcal/mol] | duplex formation entropy ΔS [4, 26] [cal/mol/K] | duplex formation entropy ΔS [4, 27] [cal/mol/K] | duplex formation free energy ΔG50 [2, 28] [kcal/mol] | duplex formation enthalpy ΔH [3, 28] [kcal/mol] | duplex formation entropy ΔS [4, 28] [cal/mol/K]
CGATTTTGTCAAGCCT | 64.1 | 52.6 | 45 ± 0.64 | 64.84 ± 0.3 | 55.56 ± 0.073 | 48.27 ± 0.26 | 66.53 ± 0.27 | 57.82 ± 0.17 | 50.1 ± 0.15 | 67.75 ± 0.37 | 58.86 ± 0.14 | 51.53 ± 0.24 | 68.64 ± 0.33 | 59.74 ± 0.12 | 52.43 ± 0.088 | 70.02 ± 0.072 | 60.94 ± 0.033 | 53.55 ± 0.096 | 70.68 ± 0.17 | 61.81 ± 0.11 | 54.55 ± 0.15 | -10.45 ± 0.08 | -8.766 ± 0.018 | -74 ± 2.7 | -66.5 ± 1.8 | -197 ± 8.1 | -179 ± 5.5 | – | – | –
CCGCTCAGAGTAGAGA | 62.75 ± 0.41 | 56.777 ± 0.05 | 49.2 ± 0.5 | 65.47 ± 0.19 | 59.67 ± 0.14 | 52.58 ± 0.28 | 67.54 ± 0.15 | 61.84 ± 0.13 | 54.81 ± 0.14 | 68.92 ± 0.084 | 63.04 ± 0.11 | 55.91 ± 0.17 | 69.87 ± 0.13 | 63.88 ± 0.14 | 56.68 ± 0.077 | 71.25 ± 0.081 | 65.05 ± 0.1 | 57.72 ± 0.067 | 72.15 ± 0.098 | 65.94 ± 0.14 | 58.67 ± 0.3 | -11.31 ± 0.042 | -9.673 ± 0.048 | -73.5 ± 1.1 | -68.9 ± 2.6 | -193 ± 3.2 | -183 ± 8 | -12.5 ± 0.059 | -72.8 ± 1.1 | -187 ± 3.2
CACAGCGACATGTATGG | 66.351 ± 0.017 | 59.17 ± 0.49 | 51.1 ± 0.65 | 68.17 ± 0.38 | 61.71 ± 0.23 | 54.15 ± 0.059 | 70.03 ± 0.34 | 63.56 ± 0.32 | 56.02 ± 0.1 | 71.11 ± 0.17 | 64.61 ± 0.28 | 56.91 ± 0.12 | 72.07 ± 0.21 | 65.347 ± 0.065 | 57.68 ± 0.091 | 73.27 ± 0.14 | 66.45 ± 0.11 | 58.539 ± 0.051 | 74.18 ± 0.2 | 67.43 ± 0.1 | 59.3 ± 0.12 | -12.06 ± 0.059 | -10.12 ± 0.071 | -83.1 ± 1.4 | -80 ± 3.5 | -220 ± 4.1 | -216 ± 10 | -13.7 ± 0.16 | -84.1 ± 2.5 | -218 ± 7.4
GCTGAACTAACCACCA | 62.4 ± 1.2 | 55.12 ± 0.072 | 47.5 ± 0.78 | 65.29 ± 0.31 | 57.81 ± 0.12 | 50.39 ± 0.32 | 67.03 ± 0.25 | 60.12 ± 0.057 | 52.54 ± 0.26 | 68.36 ± 0.31 | 61.33 ± 0.085 | 53.74 ± 0.18 | 69.23 ± 0.2 | 62.13 ± 0.097 | 54.62 ± 0.096 | 70.53 ± 0.31 | 63.33 ± 0.14 | 55.67 ± 0.093 | 71.61 ± 0.45 | 64.15 ± 0.058 | 56.62 ± 0.25 | -10.92 ± 0.045 | -9.252 ± 0.03 | -73 ± 1.3 | -69.9 ± 2.3 | -192 ± 3.9 | -188 ± 7 | -12.7 ± 0.18 | -77.7 ± 3.3 | -201 ± 9.6
TTGAAAACCCATGTGC | 60.23 ± 0.095 | – | 44.39 ± 0.2 | 62.8 ± 0.81 | 56.79 ± 0.24 | 47.54 ± 0.18 | 64.91 ± 0.47 | 59.35 ± 0.12 | 49.47 ± 0.39 | 66.29 ± 0.13 | 60.57 ± 0.15 | 50.5 ± 0.34 | 67.33 ± 0.16 | 61.45 ± 0.1 | 51.45 ± 0.23 | 68.7 ± 0.13 | 62.67 ± 0.086 | 52.45 ± 0.36 | 69.66 ± 0.17 | 63.58 ± 0.29 | 53.33 ± 0.26 | -10.62 ± 0.078 | -8.581 ± 0.024 | -68.7 ± 2.4 | -69.7 ± 2.8 | -180 ± 7.1 | -189 ± 8.7 | -11.8 ± 0.082 | -69.1 ± 1.7 | -177 ± 5
ACTCGCTCTACCTTAAT | 60.43 ± 0.52 | – | 46.7 ± 0.53 | 62.88 ± 0.38 | 55.24 ± 0.45 | 50.2 ± 0.22 | 65.23 ± 0.53 | 57.69 ± 0.21 | 52.44 ± 0.085 | 66.57 ± 0.5 | 59.03 ± 0.074 | 53.72 ± 0.14 | 67.63 ± 0.18 | 59.946 ± 0.043 | 54.68 ± 0.21 | 69.17 ± 0.14 | 61.16 ± 0.2 | 55.75 ± 0.19 | 70.4 ± 0.34 | 62.06 ± 0.28 | 56.8 ± 0.2 | -10.27 ± 0.06 | -9.165 ± 0.027 | -67 ± 2.1 | -63.1 ± 2 | -176 ± 6.4 | -167 ± 6.3 | -11.8 ± 0.16 | -68.3 ± 3.3 | -175 ± 9.7
GATTGTATCATCGACATCACACTACC | 73.69 ± 0.2 | 65.7 ± 0.68 | 56.3 ± 0.93 | 74.91 ± 0.39 | 67.05 ± 0.59 | 58.43 ± 0.52 | 76.04 ± 0.6 | 68.37 ± 0.47 | 59.81 ± 0.47 | 76.92 ± 0.26 | 68.77 ± 0.45 | 60.92 ± 0.21 | 77.78 ± 0.12 | 69.57 ± 0.28 | 61.49 ± 0.14 | 78.7 ± 0.1 | 70.36 ± 0.14 | 62.51 ± 0.2 | 79.317 ± 0.061 | 70.75 ± 0.1 | 63.05 ± 0.085 | -16.1 ± 0.27 | -11.7 ± 0.069 | -137 ± 4.9 | -99.2 ± 2.2 | -375 ± 14 | -271 ± 6.5 | -18.3 ± 0.7 | -127 ± 9.1 | -336 ± 26
TTCGCGGTCTCCATTA | – | – | 51.49 ± 0.12 | – | 60.46 ± 0.26 | 55.69 ± 0.27 | 68.99 ± 0.35 | 62.978 ± 0.054 | 58.1 ± 0.25 | 70.45 ± 0.55 | 64.448 ± 0.036 | 59.57 ± 0.46 | 71.62 ± 0.38 | 65.33 ± 0.18 | 60.56 ± 0.28 | 73.14 ± 0.38 | 66.71 ± 0.2 | 61.77 ± 0.089 | 74.63 ± 0.43 | 67.75 ± 0.63 | 62.58 ± 0.18 | -11.23 ± 0.091 | -10.18 ± 0.084 | -65.2 ± 2.1 | -60.9 ± 3 | -167 ± 6.1 | -157 ± 8.9 | -12 ± 0.26 | -59.2 ± 4.2 | -146 ± 12
GCGGTTGGTGGCCAAC | – | 63.49 ± 0.42 | 56.4 ± 0.12 | 72.845 ± 0.0061 | 65.54 ± 0.56 | 59.65 ± 0.13 | 74.66 ± 0.1 | 67.67 ± 0.49 | 61.64 ± 0.16 | 75.96 ± 0.21 | 68.96 ± 0.29 | 62.663 ± 0.048 | 76.8 ± 0.26 | 69.81 ± 0.25 | 63.516 ± 0.06 | 77.93 ± 0.21 | 71.07 ± 0.17 | 64.64 ± 0.11 | 78.54 ± 0.17 | 71.91 ± 0.09 | 65.39 ± 0.087 | -12.9 ± 0.13 | -11.29 ± 0.089 | -80.6 ± 2.4 | -75.1 ± 2.4 | -209 ± 7.1 | -197 ± 7.2 | -14.9 ± 0.28 | -87 ± 3.6 | -223 ± 10
